Consider twelve molecules from patent US20230257458A1 (SUNSHINE LAKE PHARMA, published 2023).

Broadly, the EC50 is the midpoint of the concentration-response curve. Broadly, the Kd is the concentration at which binding is half-saturated. As a reminder, the koff is the first-order rate constant of dissociation. By kon is commonly meant the rate constant with which the complex forms.

The chains are these.
T1: IL-11-Fc protein (UniProt P20809 22-199, limits assumed)
T1 construct: also called IL-11 recombinant protein with Fc tag; not shown: Fc tag
T1 sequence (looked up): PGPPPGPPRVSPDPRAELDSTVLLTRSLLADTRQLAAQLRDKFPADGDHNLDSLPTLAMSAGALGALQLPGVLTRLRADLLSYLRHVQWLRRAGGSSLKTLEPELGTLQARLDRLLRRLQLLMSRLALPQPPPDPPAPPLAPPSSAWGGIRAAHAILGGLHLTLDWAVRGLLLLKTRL

T2: IL-11 protein (UniProt P20809 22-199, limits assumed)
T2 construct: also called IL-11 antigen
T2 sequence (looked up): T1 sequence (looked up)

B1: humanized antibody VH1+VL4, full-length (IgG format) (antibody, V domains shown)
VH: QVQLVQSGAEVKKPGASVKVSCKASDYTFTNYWLGWVRQAPGQGLEWMGHIYPGGGYTNYNEKFKGRVTMTRDTSTSTVYMELSSLRSEDTAVYYCARVRSGNDALDFWGQGTLVTVSS
VL: EIVLTQSPATLSLSPGERATLSCRASESVDEYGISFMNWFQQKPGQAPRLLIYSASNQGSGIPARFSGSGSGTDFTLTISSLEPEDFAMYFCQQSKEVPWTFGGGTKLEIK
B2: humanized antibody VH1+VL3, full-length (IgG format) (antibody, V domains shown)
VH: B1 VH
VL: B1 VL with M89V
B3: humanized antibody VH1+VL2, full-length (IgG format) (antibody, V domains shown)
VH: B1 VH
VL: B1 VL with F40Y, M89V
B4: 3-15D5-3A6 (antibody, human IgG1, kappa, V domains shown)
VH: QVTLKESGPGILQPSQTLSLTCSFSGFSLSSSGMSVGWIRQPSGKGLEWLAHIWWSDDKSYNPALKSRLTISKDTSNNQVFLKIASVVTADTATYYCAREGSLGYGLDYWGQGTTLTVSS
VL: DVLMTQTPLSLPVSLGDQASISCRSSQSIVHTDGNTYLEWYLQKPGQSPKLLIYKVSNRFSGVPDRFSGSGSGTDFTLKISRVEAEDLGVYYCFQGSHVPWTFGGGTKLEIKR
B5: 3-5B2-2G4 (antibody, human IgG1, kappa, V domains shown)
VH: QIQLVQSGPELKKPGETVKISCKASGYTFTNYGMNWVKQAPGKGLKWMGWINTNTGEPTYAEEIKGRFAFSLETSASTAYLQINNLKNEDTATYFCSREGIYGMDSWGQGTSVTVSS
VL: SIVMTQTPKFLLVSAGDRVTITCKASQSVSNDVVWYRQKPGQSPKLLIYYASNRYIGVPDRFTGSGYGTDFTFTISTVQAEDLAVYFCQQDYYSPWTFGGGTKLEIKR
B6: 3-2B5-3D2 (antibody, human IgG1, kappa, V domains shown)
VH: QVQLKQSGPGLVLPSQSLSITCTVSGFSLTSYGVHWFRQSPGTGLEWLGVIWSGGITDYNATFIPRLSISKDNSKSQVFFKMNSLQADDTAIYYCARNFDGYYYSIDYWGQGTSVTVSS
VL: DIQMTQTTSSLSASLGDRVTISCRASQDISNSLNWYQQKPDGTVKLLIYYTSRLHSGVPSRFTGSGSGTDYSLTISNLEQEDIATYFCQQGNTLPLTFGAGTKLELKR
B7: 3-9E1-3A2 (antibody, human IgG1, kappa, V domains shown)
VH: QIQLVQSGPELKKPGETVNISCRASGDTFTNYAVNWVKQAPGKGLKWMGWIDTYTGDPTYADDLKGRFAFSLETSATTAYLQINNLKNEDTATYFCAGDTWFAYWGQGTLVTVSA
VL: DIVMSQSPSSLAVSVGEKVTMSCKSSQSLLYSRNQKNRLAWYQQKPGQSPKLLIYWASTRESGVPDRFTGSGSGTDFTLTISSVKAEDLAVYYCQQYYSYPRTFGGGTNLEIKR
B8: 3-7C9-1A6 (antibody, human IgG1, kappa, V domains shown)
VH: QVQLKQSGPGLVQPSQSLSITCTVSGFSLTNYGVHWVRQSPGKGLEWLGAIWRGGSTDYNAAFMSRLSITKDNSKSQVFFKMNSLQPDDTAIYYCAKNLYGPAAMDYWGQGTSVTVSS
VL: DIQMNQSPSSLSASLGDTITITCHANQNIYVWLSWYQQKPGNIPKLLIYEASNLHTGVPSRFSGSGSGTGFTLTISSLQPEDIATYYCQQGQSYPYTFGGGTKLEIKR
B9: 3-15D5-6A1 (antibody, human IgG1, kappa, V domains shown)
VH: EVKLLESGGGLVQPGGSLKLSCAASGFDFRRYWMSWVRQAPGKGLEWIGQINPDSSMINYTPSLKDKFIISRDNAKNTLYLQMSEVRSEDTALYYCATYGHHATDSWGQGTSVTVSS
VL: DIVLTQSPASLAVSLGQRATISCRASESVDSYGNSFMHWYQQKPGQPPKLLIYRASNLESGIPARFSGSGSRTDFTLTINPVEADDVATYYCQQSNEDPFTFGSGTKLEIKR
B10: VH4 + VL2-scFv (scFv, V domains shown)
VH: B1 VH with Q43H, M48I, V68A, M70L, R72A, Y95F
VL: B1 VL with F40Y, M89V
notes: Humanized 5-20E11-5F2; CHO supernatant; Called scFv, but heavy and light vectors were co-transfected
B11: VH4 + VL4-scFv (scFv, V domains shown)
VH: B1 VH with Q43H, M48I, V68A, M70L, R72A, Y95F
VL: B1 VL
notes: as for B10
B12: VH4 + VL3-scFv (scFv, V domains shown)
VH: B1 VH with Q43H, M48I, V68A, M70L, R72A, Y95F
VL: B1 VL with M89V
notes: as for B10

Substitutions are numbered along the chain they refer to.

One assay has as its target T1, IL-11-Fc protein. The assay is described as follows: flow competition: IL-11-Fc + antibody dilutions on membrane-IL-11R CHO cells. The protocol: Then the plate was incubated with 1.5*10\hat{ }5 membrane-IL-11R CHO cells (100 ul/well) for 1 h at room temperature. After incubation, the plate was centrifuged at 1500 rpm for 5 min, washed three times with PBS, and 1:400 diluted flow secondary antibody Goat-anti-Fc-FITC (Abcam, ab98529) was added with 200 ul/well. Then, the plate was incubated at 4° C. for 1 h, centrifuged at 1500 rpm for 5 min, washed three times with PBS, resuspended cells in 180 ul PBS, and detected by flow cytometry.
Regarding B1, the concentration giving a half-maximal response (EC50) worked out at 12.5 µg/mL.
As for B2, the EC50 came out at 10.5 µg/mL.
As to B3, the EC50 is 11.6 µg/mL.

Another assay concerns the target T2, IL-11 protein. The assay is described as follows: ELISA, monoclonal hybridoma supernatant on IL-11. From the text:
(§1) Cell lines with high secretion of specific antibody were selected for expanded culture and cryopreservation.
In turn, B4 returned an OD450 of 1.69.
The same measure, in the same setting: then B5, with 1.65; and B6, with 1.61; and B7, with 1.54.
Take B8: the OD450 was 1.6.
Consider B9, for which the OD450 is 1.51.

A further assay has as its target T2, IL-11 protein. The experiment in a line: SPR (Biacore), antibody captured, 400 nM IL-11 as analyte. On the procedure: (§2) The measure method included the steps of capturing the humanized antibody at a flow rate of 10 ul/min. […] Finally the chip was regenerated with 10 mM glycine buffer.
B10 yielded a Kd of 11.1 nM, a koff of 0.000614 s⁻¹ and a kon of 55200 M⁻¹ s⁻¹.
B11 had a Kd of 10 nM, a koff of 0.000481 s⁻¹ and a kon of 47900 M⁻¹ s⁻¹.
Turning to B12, binding was characterised by a dissociation constant (Kd) of 11.2 nM, the koff came to 0.000516 s⁻¹ and the kon was determined as 46100 M⁻¹ s⁻¹.

Another assay concerns the target T2, IL-11 protein. The experiment in a line: SPR (Biacore), IgG captured, IL-11 6.25-400 nM as analyte. On the procedure:
as §2
(Surface plasmon resonance follows binding to a sensor surface in real time, without labels.)
For the molecule B1, the Kd was 10 nM, the koff is 0.000545 s⁻¹ and the kon was determined as 54300 M⁻¹ s⁻¹.
Molecule B2 gave a Kd of 9.03 nM, a koff of 0.000474 s⁻¹ and a kon of 52600 M⁻¹ s⁻¹.
The like results for B3 were, in that order, 12 nM, 0.000597 s⁻¹ and 49800 M⁻¹ s⁻¹.

Another assay concerns the target T2, IL-11 protein. The assay is described as follows: flow competition: IL-11 + antibody on IL-11R cells; lower = more blocking.
Excerpt: as §1
On to B4, for which the “FITC Mean” value was 10900.
Take B5: the “FITC Mean” value was 19800.
On to B6, for which the “FITC Mean” value turned out to be 15300.
For the molecule B7, the “FITC Mean” value stood at 9070.
As for B8, the “FITC Mean” value worked out at 3150.
Same read-out and setting: then B9, with 13600.
